Data: patent publication US20220119490A1 (Genentech, published 2022)

Legend:
[1] = biological target: T1, CHL1 extracellular domain (human, UniProt O00533 25-1082); experiment: SPR, CHL1 immobilized, CNTN1 ECD-Fc injected at 250 nM
T1 construct: extracellular domain; Soluble query (streptavidin tetramer) in cell assays; recombinant protein (R&D) in SPR; also called neural cell adhesion molecule L1-like protein; close homolog of L1
T1 sequence (looked up): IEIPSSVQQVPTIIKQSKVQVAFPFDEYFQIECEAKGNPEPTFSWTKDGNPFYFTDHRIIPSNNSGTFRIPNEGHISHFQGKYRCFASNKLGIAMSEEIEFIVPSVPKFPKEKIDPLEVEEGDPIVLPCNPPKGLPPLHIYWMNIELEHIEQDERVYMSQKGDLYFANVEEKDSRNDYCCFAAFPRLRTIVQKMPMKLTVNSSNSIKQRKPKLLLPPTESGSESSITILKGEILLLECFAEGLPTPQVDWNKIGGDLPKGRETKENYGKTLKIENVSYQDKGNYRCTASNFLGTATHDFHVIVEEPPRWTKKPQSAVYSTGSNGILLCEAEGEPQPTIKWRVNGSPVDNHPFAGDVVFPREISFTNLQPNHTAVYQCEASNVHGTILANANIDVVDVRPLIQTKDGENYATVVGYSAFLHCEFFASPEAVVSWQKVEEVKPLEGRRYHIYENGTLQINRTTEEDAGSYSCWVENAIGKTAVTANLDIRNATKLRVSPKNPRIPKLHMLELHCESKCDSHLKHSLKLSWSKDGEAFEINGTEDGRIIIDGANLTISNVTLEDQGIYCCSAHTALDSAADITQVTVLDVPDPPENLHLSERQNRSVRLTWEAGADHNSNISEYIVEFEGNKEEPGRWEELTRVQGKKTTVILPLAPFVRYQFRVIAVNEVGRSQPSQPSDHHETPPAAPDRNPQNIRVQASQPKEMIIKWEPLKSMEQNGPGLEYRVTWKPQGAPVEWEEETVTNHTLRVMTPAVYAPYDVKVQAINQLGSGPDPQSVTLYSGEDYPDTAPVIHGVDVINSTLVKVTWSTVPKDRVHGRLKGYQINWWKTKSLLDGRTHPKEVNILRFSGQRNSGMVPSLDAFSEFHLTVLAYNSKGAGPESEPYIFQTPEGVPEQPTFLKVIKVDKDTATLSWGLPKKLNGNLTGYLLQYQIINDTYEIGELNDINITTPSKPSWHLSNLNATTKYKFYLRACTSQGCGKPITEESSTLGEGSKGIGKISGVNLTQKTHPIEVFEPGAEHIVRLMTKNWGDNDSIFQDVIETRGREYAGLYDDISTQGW

[2] = biological target: T2, PTPRD G203E K204E variant extracellular domain (human, UniProt P23468 21-1265); experiment: extracellular interaction screen: pentameric PTPRD variant ECD on ECD-Fc prey (FIG. 5L)
T2 construct: extracellular domain; also called G203E/K204E double mutant; IG2 mutant
T2 sequence (looked up): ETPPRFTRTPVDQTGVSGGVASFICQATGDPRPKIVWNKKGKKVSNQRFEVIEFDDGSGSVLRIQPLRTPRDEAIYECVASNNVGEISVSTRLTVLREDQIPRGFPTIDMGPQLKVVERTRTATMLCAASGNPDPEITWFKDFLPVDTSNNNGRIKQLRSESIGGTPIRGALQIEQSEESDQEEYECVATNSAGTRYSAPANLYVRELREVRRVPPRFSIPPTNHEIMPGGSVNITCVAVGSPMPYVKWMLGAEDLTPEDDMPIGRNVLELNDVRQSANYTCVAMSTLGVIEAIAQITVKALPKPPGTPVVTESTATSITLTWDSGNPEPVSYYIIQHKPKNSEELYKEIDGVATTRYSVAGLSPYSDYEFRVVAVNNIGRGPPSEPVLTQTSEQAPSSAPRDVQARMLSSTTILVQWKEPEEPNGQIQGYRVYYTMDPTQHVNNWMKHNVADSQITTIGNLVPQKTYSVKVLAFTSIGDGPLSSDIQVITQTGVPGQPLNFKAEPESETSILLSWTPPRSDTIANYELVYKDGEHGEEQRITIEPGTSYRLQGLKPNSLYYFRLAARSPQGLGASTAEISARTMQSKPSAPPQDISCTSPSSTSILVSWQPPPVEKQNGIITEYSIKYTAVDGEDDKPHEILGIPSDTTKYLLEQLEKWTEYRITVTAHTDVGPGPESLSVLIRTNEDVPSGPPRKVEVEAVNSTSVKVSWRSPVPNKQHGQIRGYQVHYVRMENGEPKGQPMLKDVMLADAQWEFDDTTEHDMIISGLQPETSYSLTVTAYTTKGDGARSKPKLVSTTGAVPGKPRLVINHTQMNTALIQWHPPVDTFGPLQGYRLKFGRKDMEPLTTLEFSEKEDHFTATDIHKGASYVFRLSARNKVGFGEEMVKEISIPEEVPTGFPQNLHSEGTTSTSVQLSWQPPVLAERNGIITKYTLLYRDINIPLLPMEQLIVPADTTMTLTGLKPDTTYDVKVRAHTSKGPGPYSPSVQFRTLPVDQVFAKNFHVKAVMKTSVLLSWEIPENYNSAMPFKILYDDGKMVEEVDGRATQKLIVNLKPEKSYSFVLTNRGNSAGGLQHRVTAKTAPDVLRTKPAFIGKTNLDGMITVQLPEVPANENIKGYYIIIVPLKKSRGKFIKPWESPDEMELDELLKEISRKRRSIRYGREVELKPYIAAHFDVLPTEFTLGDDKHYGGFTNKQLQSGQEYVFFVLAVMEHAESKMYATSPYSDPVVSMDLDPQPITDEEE

PTPRD expressed on cells = biological target: T3, PTPRD expressed on cells (human, UniProt P23468 21-1912); experiment: cell surface interaction assay: streptavidin-tetramerized biotinylated ECD on transfected cells, immunofluorescence
T3 construct: whole, on cells; also called receptor-type tyrosine-protein phosphatase delta

PTPRS expressed on cells = biological target: T4, PTPRS expressed on cells (human, UniProt Q13332 30-1948); experiment: as above
T4 construct: whole, on cells; also called receptor-type tyrosine-protein phosphatase S

PTPRF expressed on cells = biological target: T5, PTPRF expressed on cells (human, UniProt P10586 30-1907); experiment: as above
T5 construct: whole, on cells; also called receptor-type tyrosine-protein phosphatase F

T3 sequence (P23468 21-1912): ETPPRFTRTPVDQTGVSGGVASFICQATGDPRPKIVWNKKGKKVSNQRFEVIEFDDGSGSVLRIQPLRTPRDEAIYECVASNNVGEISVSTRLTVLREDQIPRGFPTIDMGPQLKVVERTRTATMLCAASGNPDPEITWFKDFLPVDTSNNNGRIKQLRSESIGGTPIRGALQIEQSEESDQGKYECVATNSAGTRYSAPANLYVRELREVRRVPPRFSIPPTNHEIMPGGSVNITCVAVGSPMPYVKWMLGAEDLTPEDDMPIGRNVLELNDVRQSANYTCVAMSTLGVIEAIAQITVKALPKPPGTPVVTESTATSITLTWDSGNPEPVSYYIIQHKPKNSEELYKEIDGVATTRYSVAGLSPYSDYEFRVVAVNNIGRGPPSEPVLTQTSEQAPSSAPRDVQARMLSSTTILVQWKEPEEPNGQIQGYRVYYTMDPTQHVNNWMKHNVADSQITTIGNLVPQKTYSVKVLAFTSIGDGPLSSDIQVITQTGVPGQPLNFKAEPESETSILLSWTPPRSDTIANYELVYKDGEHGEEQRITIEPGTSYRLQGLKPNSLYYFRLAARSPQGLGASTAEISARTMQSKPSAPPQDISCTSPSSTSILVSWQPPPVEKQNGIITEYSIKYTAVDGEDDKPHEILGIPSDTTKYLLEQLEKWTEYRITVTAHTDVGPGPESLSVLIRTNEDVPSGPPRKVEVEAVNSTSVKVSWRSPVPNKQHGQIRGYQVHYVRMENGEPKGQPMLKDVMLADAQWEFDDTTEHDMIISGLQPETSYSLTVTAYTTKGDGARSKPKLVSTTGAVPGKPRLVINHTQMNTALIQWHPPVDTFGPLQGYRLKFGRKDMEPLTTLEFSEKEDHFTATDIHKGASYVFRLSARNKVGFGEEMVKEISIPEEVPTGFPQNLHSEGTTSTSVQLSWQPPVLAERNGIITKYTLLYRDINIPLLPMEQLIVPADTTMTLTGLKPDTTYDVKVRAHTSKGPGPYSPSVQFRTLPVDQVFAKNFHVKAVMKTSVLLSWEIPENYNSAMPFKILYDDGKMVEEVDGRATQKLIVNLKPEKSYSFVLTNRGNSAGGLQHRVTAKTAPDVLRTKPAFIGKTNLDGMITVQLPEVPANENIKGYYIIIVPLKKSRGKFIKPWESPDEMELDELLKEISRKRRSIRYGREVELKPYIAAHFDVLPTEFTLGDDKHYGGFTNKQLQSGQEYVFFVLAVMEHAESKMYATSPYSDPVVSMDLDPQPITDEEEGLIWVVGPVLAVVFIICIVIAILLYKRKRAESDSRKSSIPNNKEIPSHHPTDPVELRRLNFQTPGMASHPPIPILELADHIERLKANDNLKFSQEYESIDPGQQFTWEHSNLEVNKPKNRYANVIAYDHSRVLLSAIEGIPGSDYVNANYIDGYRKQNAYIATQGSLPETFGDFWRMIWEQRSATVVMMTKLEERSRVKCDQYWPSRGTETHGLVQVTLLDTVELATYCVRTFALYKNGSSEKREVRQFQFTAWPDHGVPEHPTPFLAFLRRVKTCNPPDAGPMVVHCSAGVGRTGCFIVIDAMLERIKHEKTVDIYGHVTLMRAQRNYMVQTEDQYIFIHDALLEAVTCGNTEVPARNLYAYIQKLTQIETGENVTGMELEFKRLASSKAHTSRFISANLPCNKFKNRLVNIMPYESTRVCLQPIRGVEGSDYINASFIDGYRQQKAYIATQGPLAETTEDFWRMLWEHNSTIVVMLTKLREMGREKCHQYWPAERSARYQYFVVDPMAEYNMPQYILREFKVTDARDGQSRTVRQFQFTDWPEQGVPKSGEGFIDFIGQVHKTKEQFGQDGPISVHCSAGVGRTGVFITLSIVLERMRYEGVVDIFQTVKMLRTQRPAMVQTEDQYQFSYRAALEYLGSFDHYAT
T4 sequence (Q13332 30-1948): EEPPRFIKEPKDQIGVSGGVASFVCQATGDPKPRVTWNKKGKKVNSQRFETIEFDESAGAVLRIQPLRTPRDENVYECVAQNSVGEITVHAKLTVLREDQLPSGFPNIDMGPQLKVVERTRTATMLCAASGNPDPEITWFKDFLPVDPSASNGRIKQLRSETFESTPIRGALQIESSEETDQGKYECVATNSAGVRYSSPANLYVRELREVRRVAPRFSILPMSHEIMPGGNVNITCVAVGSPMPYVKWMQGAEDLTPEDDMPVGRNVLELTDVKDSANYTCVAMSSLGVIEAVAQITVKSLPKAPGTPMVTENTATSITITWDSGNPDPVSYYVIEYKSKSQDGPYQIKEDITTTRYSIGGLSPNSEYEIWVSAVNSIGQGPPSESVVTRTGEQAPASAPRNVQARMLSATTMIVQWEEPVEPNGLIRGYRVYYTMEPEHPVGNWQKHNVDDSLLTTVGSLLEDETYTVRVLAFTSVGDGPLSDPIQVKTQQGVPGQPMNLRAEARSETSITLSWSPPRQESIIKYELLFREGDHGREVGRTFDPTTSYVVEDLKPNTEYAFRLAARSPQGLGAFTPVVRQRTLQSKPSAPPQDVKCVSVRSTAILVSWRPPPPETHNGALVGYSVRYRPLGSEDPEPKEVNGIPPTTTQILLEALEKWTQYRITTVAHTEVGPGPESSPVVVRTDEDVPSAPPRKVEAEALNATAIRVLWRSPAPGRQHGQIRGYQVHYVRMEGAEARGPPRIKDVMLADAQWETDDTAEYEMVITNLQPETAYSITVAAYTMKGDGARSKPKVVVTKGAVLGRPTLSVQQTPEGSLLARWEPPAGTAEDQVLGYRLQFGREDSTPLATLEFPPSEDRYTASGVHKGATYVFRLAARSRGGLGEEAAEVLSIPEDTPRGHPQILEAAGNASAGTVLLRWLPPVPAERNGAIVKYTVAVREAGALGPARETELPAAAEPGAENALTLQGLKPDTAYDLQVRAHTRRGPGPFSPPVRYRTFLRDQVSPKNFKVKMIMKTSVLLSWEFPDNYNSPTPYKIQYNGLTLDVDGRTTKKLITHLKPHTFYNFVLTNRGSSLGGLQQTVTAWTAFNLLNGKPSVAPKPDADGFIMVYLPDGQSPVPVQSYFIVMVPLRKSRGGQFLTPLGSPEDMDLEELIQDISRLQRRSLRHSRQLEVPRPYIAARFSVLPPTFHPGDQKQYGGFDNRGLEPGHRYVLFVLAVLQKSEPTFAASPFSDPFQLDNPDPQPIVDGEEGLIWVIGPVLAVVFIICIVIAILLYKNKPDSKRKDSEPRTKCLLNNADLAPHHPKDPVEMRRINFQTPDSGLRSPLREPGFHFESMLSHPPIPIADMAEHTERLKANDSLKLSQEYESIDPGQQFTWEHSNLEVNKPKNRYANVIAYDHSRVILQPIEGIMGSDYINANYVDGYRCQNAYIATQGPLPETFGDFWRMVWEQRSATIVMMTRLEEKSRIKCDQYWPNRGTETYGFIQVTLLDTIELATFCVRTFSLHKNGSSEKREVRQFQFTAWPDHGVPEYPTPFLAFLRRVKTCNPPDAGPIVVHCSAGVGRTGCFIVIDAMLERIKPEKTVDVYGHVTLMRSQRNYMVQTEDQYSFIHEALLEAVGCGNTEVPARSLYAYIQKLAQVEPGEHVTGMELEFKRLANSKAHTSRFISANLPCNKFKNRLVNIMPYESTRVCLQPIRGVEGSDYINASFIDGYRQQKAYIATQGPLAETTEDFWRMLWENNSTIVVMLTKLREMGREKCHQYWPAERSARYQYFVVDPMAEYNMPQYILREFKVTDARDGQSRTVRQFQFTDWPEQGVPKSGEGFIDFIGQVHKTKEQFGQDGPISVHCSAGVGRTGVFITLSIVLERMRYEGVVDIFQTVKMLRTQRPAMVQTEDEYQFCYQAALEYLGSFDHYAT

B1: CNTN1 extracellular domain (receptor, human, UniProt Q12860 21-993, looked up)
chain: EFTWYRRYGHGVSEEDKGFGPIFEEQPINTIYPEESLEGKVSLNCRARASPFPVYKWRMNNGDVDLTSDRYSMVGGNLVINNPDKQKDAGIYYCLASNNYGMVRSTEATLSFGYLDPFPPEERPEVRVKEGKGMVLLCDPPYHFPDDLSYRWLLNEFPVFITMDKRRFVSQTNGNLYIANVEASDKGNYSCFVSSPSITKSVFSKFIPLIPIPERTTKPYPADIVVQFKDVYALMGQNVTLECFALGNPVPDIRWRKVLEPMPSTAEISTSGAVLKIFNIQLEDEGIYECEAENIRGKDKHQARIYVQAFPEWVEHINDTEVDIGSDLYWPCVATGKPIPTIRWLKNGYAYHKGELRLYDVTFENAGMYQCIAENTYGAIYANAELKILALAPTFEMNPMKKKILAAKGGRVIIECKPKAAPKPKFSWSKGTEWLVNSSRILIWEDGSLEINNITRNDGGIYTCFAENNRGKANSTGTLVITDPTRIILAPINADITVGENATMQCAASFDPALDLTFVWSFNGYVIDFNKENIHYQRNFMLDSNGELLIRNAQLKHAGRYTCTAQTIVDNSSASADLVVRGPPGPPGGLRIEDIRATSVALTWSRGSDNHSPISKYTIQTKTILSDDWKDAKTDPPIIEGNMEAARAVDLIPWMEYEFRVVATNTLGRGEPSIPSNRIKTDGAAPNVAPSDVGGGGGRNRELTITWAPLSREYHYGNNFGYIVAFKPFDGEEWKKVTVTNPDTGRYVHKDETMSPSTAFQVKVKAFNNKGDGPYSLVAVINSAQDAPSEAPTEVGVKVLSSSEISVHWEHVLEKIVESYQIRYWAAHDKEEAANRVQVTSQEYSARLENLLPDTQYFIEVGACNSAGCGPPSDMIEAFTKKAPPSQPPRIISSVRSGSRYIITWDHVVALSNESTVTGYKVLYRPDGQHDGKLYSTHKHSIEVPIPRDGEYVVEVRAHSDGGDGVVSQVKIS
notes: extracellular domain; Streptavidin tetramer in cell assays; ECD-Fc in SPR; also called contactin 1
- binding result [1]: binds

B2: LRRC4B extracellular domain (receptor, human, UniProt Q9NT99 36-576, looked up)
chain: AGGGGVAVTSAAGGGSPPATSCPVACSCSNQASRVICTRRDLAEVPASIPVNTRYLNLQENGIQVIRTDTFKHLRHLEILQLSKNLVRKIEVGAFNGLPSLNTLELFDNRLTTVPTQAFEYLSKLRELWLRNNPIESIPSYAFNRVPSLRRLDLGELKRLEYISEAAFEGLVNLRYLNLGMCNLKDIPNLTALVRLEELELSGNRLDLIRPGSFQGLTSLRKLWLMHAQVATIERNAFDDLKSLEELNLSHNNLMSLPHDLFTPLHRLERVHLNHNPWHCNCDVLWLSWWLKETVPSNTTCCARCHAPAGLKGRYIGELDQSHFTCYAPVIVEPPTDLNVTEGMAAELKCRTGTSMTSVNWLTPNGTLMTHGSYRVRISVLHDGTLNFTNVTVQDTGQYTCMVTNSAGNTTASATLNVSAVDPVAAGGTGSGGGGPGGSGGVGGGSGGYTYFTTVTVETLETQPGEEALQPRGTEKEPPGPTTDGVWGGGRPGDAAGPASSSTTAPAPRSSRPTEKAFTVPITDVTENALKDLDDVMKTTK
notes: extracellular domain; ECD-Fc prey; also called NGL-3; netrin-G ligand-3
- binding result [2]: no binding

B3: LRFN5 extracellular domain (receptor, human, UniProt Q96NI6 18-529, looked up)
chain: QICPKRCVCQILSPNLATLCAKKGLLFVPPNIDRRTVELRLADNFVTNIKRKDFANMTSLVDLTLSRNTISFITPHAFADLRNLRALHLNSNRLTKITNDMFSGLSNLHHLILNNNQLTLISSTAFDDVFALEELDLSYNNLETIPWDAVEKMVSLHTLSLDHNMIDNIPKGTFSHLHKMTRLDVTSNKLQKLPPDPLFQRAQVLATSGIISPSTFALSFGGNPLHCNCELLWLRRLSREDDLETCASPPLLTGRYFWSIPEEEFLCEPPLITRHTHEMRVLEGQRATLRCKARGDPEPAIHWISPEGKLISNATRSLVYDNGTLDILITTVKDTGAFTCIASNPAGEATQIVDLHIIKLPHLLNSTNHIHEPDPGSSDISTSTKSGSNTSSSNGDTKLSQDKIVVAEATSSTALLKFNFQRNIPGIRMFQIQYNGTYDDTLVYRMIPPTSKTFLVNNLAAGTMYDLCVLAIYDDGITSLTATRVVGCIQFTTEQDYVRCHFMQSQFLGGTM
notes: extracellular domain; Streptavidin tetramer in cell assay; ECD-Fc prey in the variant screen; also called LFRN5
- binding result (PTPRD expressed on cells): binds
- binding result (PTPRS expressed on cells): binds
- binding result (PTPRF expressed on cells): binds
- binding result [2]: no binding
